The supplement of paper PMC12764529
± gives the half width of the 95% confidence interval.

Experiments:
[1] = folding stability dG unfold from chymotrypsin proteolysis; higher = more stable
Description: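 Folding stability of de novo designed mini-proteins (<80 aa, no Cys; designed by TrROS, TrMRF, ProteinMPNN and the joint model) was measured by cDNA display proteolysis with trypsin and chymotrypsin. Each protease was used at 11 concentrations in a threefold dilution series plus a no-protease condition. K50 was inferred by Bayesian fitting of sequencing counts, and dG unfold was derived against a sequence-predicted unfolded-state K50 (Tsuboyama et al. method). Sequences shown include variable-length N-terminal GS-type padding (SAGGSAGG...) inside a display construct carrying a PA tag. Rows were kept only if the AF2 dimer inter-PAE was >15, to exclude likely homo-oligomers.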

[2] = folding stability dG unfold (combined trypsin and chymotrypsin); higher = more stable
Method in brief: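 Designed mini-proteins (under 80 residues, no cysteine) in a PA-tagged cDNA display construct were digested with trypsin and chymotrypsin. Each protease was used at 11 concentrations (threefold dilutions) plus a no-protease condition, followed by sequencing. K50 was inferred by Bayesian fitting of sequencing counts, and unfolding free energy was derived against a sequence-predicted unfolded-state K50 and a shared folded-state K50, per protease or combined. Only designs with AlphaFold2 dimer inter-PAE above 15 were kept.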

| Sequence | folding stability dG unfold [1] [kcal/mol] | folding stability dG unfold [2] [kcal/mol] |
| --- | --- | --- |
| SAGGSAGGSAPRLVRVRGPDGGERVIPVPPDVLADRIPPDVPVRVPVVREDGRFRFRVERGSAGGSAGGSAG [r3_86_TrMRF] | -0.819 ± 0.88 | < -1 |
| SAGGSAGGSAGMGSTSTSTSITPTPEGRIVVDTTTTFTDPGGVPVGSTTTTTTLPPGAAASAGGSAGGSAGG [r11_898_JUSTAS] | 0.242 ± 0.066 | -0.279 ± 0.16 |
| SAGGISVEIYPPNGKKVELEGDTIPELMDKFPPGGNYVIKIEQPHVNPGNGKKQPMEMEFRVPPDDFSAGGS [r16_806_TrROS] | -0.202 ± 0.23 | -0.697 ± 0.33 |
| SAGGSAGGSASLIVISPPGAPRTIPLEGLVEKGIPEREAAELLEKELGIEINLSEPGVIRAKSAGGSAGGSA [r18_7_JUSTAS] | 0.249 ± 0.044 | -0.186 ± 0.12 |
| SAGGSAGGSAGGPPNKKFILRIEHPGRPITFPFKSPKGLDEAADKFPDKFGMPPKIEVHPSAGGSAGGSAGG [r7_18_TrROS] | -0.795 ± 0.92 | < -1 |
| SAGGSAGGSFELPVPPNTPVDIEATVTRPDGTPATLVDAEPLGDGTFRVTVRYPDGSTETIEVSAGGSAGGS [r12_31_JUSTAS] | 0.959 ± 0.038 | 0.464 ± 0.061 |
| SAGGSAGGSASMSTTEITVTELEEPGEGKRLVIETKSFTPEGKEIDSEKVEEEVREELGVKPSAGGSAGGSA [r18_332_JUSTAS] | -0.0823 ± 0.079 | -0.585 ± 0.24 |
| SAGGSAGGSAGMRLLTEEIVVEQFFYETGETRLTVLTKEILVVPPRPVPVPLPEGGLRLLSAGGSAGGSAGG [r11_307_JUSTAS] | 0.925 ± 0.11 | 0.184 ± 0.13 |
| SAGGSAGGSMSTVSTSTTYFPDKKVTTTTTVTPTPDGTTATTPSVTVTPLPPPNPPPAPFNRLSAGGSAGGS [r20_30_JUSTAS] | -0.125 ± 0.28 | -0.351 ± 0.36 |
| SAGGSAGGSAGGQPLLARPNDEPIVEVEISETTTLLPNGTVVTTYSVPKKGILTTVTLVSAGGSAGGSAGGS [r10_160_JUSTAS] | -0.703 ± 0.29 | < -1 |
| SAGGMTTTVTVTEDPATGTLTVPITIPRLDAEGNPTTEVLTVTLPASPEAEAAIAALAAALGIPAAASAGGS [r8_381_JUSTAS] | 0.943 ± 0.067 | 0.369 ± 0.1 |
| SAGGSAGGSAGGSDPSATLRVTLTPRTTRTRLVTDEDGVERTYTFGGDGTLSVSLLPSGSAGGSAGGSAGGS [r4_162_TrMRF] | 0.647 ± 0.15 | 0.258 ± 0.091 |
| SAGGSAGGSAGGSPLTLTRTLTLTRTTTDPDVPGTTTTETRTLTLTTELTLPPLPPGTPSAGGSAGGSAGGS [r4_231_TrROS_Hall] | 0.588 ± 0.18 | < -1 |
| SAGGSAGGSPKKRTVEIDEWDPEEGNVRARIRDDDEEREFPFRTPEDLEDLANEGGIDKITPHSAGGSAGGS [r12_421_TrROS] | 0.518 ± 0.027 | 0.0607 ± 0.095 |
| SAGGSAGGSAPFENLPEDAKEVEITFDPSLSEEVRKALAEELKPRIEAQGIKYKFKIVPKSNLSAGGSAGGS [r12_456_JUSTAS] | -0.448 ± 0.59 | < -1 |
| SAGGSAGGSAKSALDQMKGQKFTFYHPGGEQPVPITIEPDKDDNFVVKFPNKKPYPMPIDDISAGGSAGGSA [r18_169_TrROS] | -1.29 ± 0.81 | < -1 |
| SAGVRYLVATGEDGATVVVPVPAETEEEAEEKAEELARELAERFPGARFVPVPVEEPELPPVEALPGVESAG [r5_950_TrMRF] | 0.429 ± 0.11 | -0.46 ± 0.57 |
| SAGGSAGGSAGGPERELTVPITTPDGSGKSISAELGEEELEKLIEENPEWKEAIIEARRESAGGSAGGSAGG [r7_637_JUSTAS] | 0.975 ± 0.059 | 0.483 ± 0.11 |
| SAGGGSMVEKTISTTDPKYVKILKKLEEAPEDEVVTIKEPNKDIEVLSFDKVDDNYKLLMKLPPSILSAGGS [r16_404_JUSTAS] | -0.454 ± 0.38 | -0.773 ± 0.46 |
| SAGGSAGGSAGGGYVTLSHEIPPDQSVEITAPDGKKAKQERDPATKTVTYKISPELYKLLSAGGSAGGSAGG [r7_155_JUSTAS] | -0.855 ± 0.56 | < -1 |
| SAGGSAGGSAGGSKTKTISFPMPWDDIPELAEELKDKGPVTIEHQDPDGNPREFTIPPDSAGGSAGGSAGGS [r4_341_TrROS] | 0.484 ± 0.13 | 0.0258 ± 0.19 |
| SAGGSEAAPGEKVTITTVTSSVLKTYETPTGTLETESSTSVTTTTVTVPAAAAAAAGVRYSPDPLLSAGGSA [r2_495_JUSTAS] | -0.348 ± 0.14 | < -1 |
| SAGGSAGGTIRIPPAARNMMKELQKQGFVIEEIKIDEIERTENGPPWIEIDFEIKKLPPEALKDSAGGSAGG [r6_771_TrROS] | -0.317 ± 0.33 | -0.939 ± 0.89 |
| SAGSVTRSFPSGSSVSAETDPETNTITISTSPSSGQLVAQLPTAGEKVVPVSDRDLEEAAKEAAEALLSSAG [r5_447_JUSTAS] | -0.134 ± 0.12 | -0.854 ± 0.32 |

| Sequence | folding stability dG unfold [1] [kcal/mol] | folding stability dG unfold [2] [kcal/mol] |
| --- | --- | --- |
| SSTPKLEEIERPNARFKVTTYTYPNSVKTTADATFPDGTKGKIEETYTPTPEGVKKTVKKDLPPEVKEKLES [r1_153_JUSTAS] | 0.0664 ± 0.46 | < -1 |
| SAGGMTTTTTLEVAPDTPYEAALAEIEAALAAAAAGRPVASSPVAARPGGARTLPLVVTDGAVTALGSAGGS [r8_7_JUSTAS] | 0.954 ± 0.041 | 0.35 ± 0.07 |
| SAGGSAGGSAGGMRITIDDWDPDEGPYRVKVTNPDNNKKKTMPYENLEELAKEGPVEIHRSAGGSAGGSAGG [r7_452_TrROS] | 0.368 ± 0.18 | -0.143 ± 0.13 |
| SAGGSAGGSAGGKRRIQIPPDDPGMTAEQLADRLQKEFPENGVPVEITNIDDYGYIEIESAGGSAGGSAGGS [r10_579_TrROS] | 0.962 ± 0.021 | 0.443 ± 0.088 |
| SAIKIEDDPNGYQQIEIPNPENGRKIVITMMYSPDGQFQMSLQRMDPNGKKKTITAPMPVEEAIDELKDSAG [r14_179_TrROS] | 0.698 ± 0.33 | 0.0571 ± 0.6 |
| SAGGSAMSQEEIENKPIEEIAKAILENFPGNTKVEHEFTFKDGSKLRIVVELPEDGEPKIEAEPIGSAGGSA [r15_857_TrMRF] | -0.0162 ± 0.39 | -0.452 ± 0.56 |
| SAGGSGSIVIKSIEPRLRLERLPNGELREVKEVEVDIEVEVDPETAPEEEIEAVREEAEKLAEELSSAGGSA [r2_40_JUSTAS] | 0.713 ± 0.082 | 0.144 ± 0.21 |
| SAGGSAGGSASLDPVVVTVTRYPTGVTTTTVSSRPGGEPVTTTTTYDPVSPVAPLPASRLASAGGSAGGSAG [r3_336_JUSTAS] | 0.59 ± 0.032 | 0.167 ± 0.12 |
| SAGGSAGGNTIELPLPNGMELEIPVQKNPEGYYQVNIERYDPDDGKKKEIPFTMPAEDIKDFLKSAGGSAGG [r6_859_TrROS] | -0.205 ± 0.29 | -0.785 ± 0.36 |
| SAGGSAGGSAGGSSMLTTRPLPGGRTLLRTTLPDGTILVTRYDAAGEPVLETLPPSTPLLSAGGSAGGSAGG [r7_215_JUSTAS] | 0.102 ± 0.27 | < -1 |
| SAGGSAGGSKPIPIKIKARNKDDGKKREEDIQIPPEALKNGKFDKEQIKKELRKLGPRVEIEISAGGSAGGS [r20_221_TrROS] | -0.216 ± 0.18 | < -1 |
| SAGGSAGGMREIEHEIPNPNGRNIKIKIEYDPDQGWHPVEIENPGNGKKKTYPFDSADEVLDQLSAGGSAGG [r6_465_TrROS] | 0.598 ± 0.031 | 0.0475 ± 0.17 |
| SAGGSAGGSAGGKPITIERNEDNGPIEIRFPGNGRRIHFPFPPGDDITIDAEDGNIEIKSAGGSAGGSAGGS [r10_979_TrROS] | 0.827 ± 0.016 | 0.314 ± 0.086 |
| SAGGSASTTPIKFPNGFEVTKIEEGKGLVYIKYSPENPEILEKLGVEALETNENEVIVPREAIEKKSAGGSA [r15_984_JUSTAS] | -0.634 ± 0.28 | -0.993 ± 0.36 |
| SAGGSAIKIDPDYGTIEIYNPDNGKEIEIPIDGLPPGRKMDIEINNDKIEIKMPGGTRELPIDDIKSAGGSA [r15_864_TrROS] | 0.655 ± 0.068 | 0.194 ± 0.26 |
| SAGGSAGGSAGKKKVLILGGDAVATAKELKKLGEDVEVEVLESGEDLEEHLKNYDLVLSGSAGGSAGGSAGG [r17_225_TrMRF] | 0.344 ± 0.14 | 0.106 ± 0.27 |
| SAGGSAGGSPNQDFKVKVKIKEFNPGNGHIRIDVEVEGDNPQVQDFAKGIAEGFGFPVEVEPISAGGSAGGS [r20_157_TrROS] | 0.34 ± 0.038 | -0.0925 ± 0.14 |
| SAGGSAGGSAGGMPSSVVINLNLSKEEIEAIKKGKPVSPELKPAIEEAKKEGLKVEIKKSAGGSAGGSAGGS [r10_890_JUSTAS] | 0.796 ± 0.037 | 0.309 ± 0.13 |
| SAGGMLSRESTDPGPGRRTLTREEPLPDGTVPVTVTTESPDPSVTTVETRLVFPGPAVETPTRTAAPSAGGS [r16_684_JUSTAS] | 0.78 ± 0.038 | 0.281 ± 0.052 |
| SAGGSAGGSAILRIKLEHPKSGKPMTWVIPPEMNIEQIADMLMEQHPNAEIKDIEWVPPNQISAGGSAGGSA [r18_242_TrROS] | 0.3 ± 0.12 | -0.0546 ± 0.097 |
| SAGGSAGGSAGKKTLYVIKIELSDEQLKEAKKEGKPLKLKAEIVEVKPVKVEVKKEYKKESAGGSAGGSAGG [r11_26_TrROS_Hall] | 0.586 ± 0.31 | -0.167 ± 0.56 |
| SAPVRTVTLNVPVERDAAGNLVPVSPEEIVAELEKEGYPREEIEVKNVTETTIPVTIEVDLVNGKMRVLGSA [r9_225_JUSTAS] | -0.326 ± 0.61 | < -1 |
| SAGGSAGGSAGGMTLTITDDDPSVGPRTFTLTEPGSSKTTTLTSAEMEALKAAGPVTVAGSAGGSAGGSAGG [r7_452_JUSTAS] | 0.122 ± 0.22 | -0.209 ± 0.23 |
